Among the data in article PMC4026020 are binding result and Kd values, retold here.

Broadly, the Kd is the equilibrium constant for the complex coming apart. Higher therefore signals lower affinity.

The target in series [1] is T1, MBP-AtTZF1 RR (Arabidopsis thaliana, UniProt O82307 86-128).
T1 chain: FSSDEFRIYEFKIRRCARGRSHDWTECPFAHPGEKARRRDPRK
Kind of series: EMSA. A general note: Mobility shift assays separate free from complexed probe on a gel.

Series [2] has as its target T2, MBP-AtTZF1 TZF (Arabidopsis thaliana, UniProt O82307 129-195).
T2 sequence: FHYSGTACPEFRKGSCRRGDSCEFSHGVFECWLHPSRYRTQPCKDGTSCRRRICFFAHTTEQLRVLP
Kind of series: EMSA.

The target of series [3] is T3, MBP-AtTZF1 RR-TZF (Arabidopsis thaliana, UniProt O82307 86-195).
T3 sequence: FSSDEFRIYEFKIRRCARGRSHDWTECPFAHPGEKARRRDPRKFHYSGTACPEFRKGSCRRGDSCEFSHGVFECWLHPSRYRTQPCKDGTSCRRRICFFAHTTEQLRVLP
The experiment in a line: EMSA.

Series [4] deals with T4, GST-AtTZF1 full-length (Arabidopsis thaliana, UniProt O82307 1-315).
T4 sequence: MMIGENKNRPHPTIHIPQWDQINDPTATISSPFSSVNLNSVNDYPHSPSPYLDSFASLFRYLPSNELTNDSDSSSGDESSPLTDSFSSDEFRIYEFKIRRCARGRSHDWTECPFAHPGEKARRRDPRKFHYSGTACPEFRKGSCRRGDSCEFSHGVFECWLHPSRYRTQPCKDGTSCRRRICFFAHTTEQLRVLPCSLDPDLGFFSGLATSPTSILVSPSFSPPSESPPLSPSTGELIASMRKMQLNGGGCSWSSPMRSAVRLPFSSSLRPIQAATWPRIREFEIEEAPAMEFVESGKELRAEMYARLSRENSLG
Kind of series: fluorescence anisotropy. Background: Polarisation of emitted light reports the rotation of a fluorescent probe.

In series [5] the target is T3, MBP-AtTZF1 RR-TZF. Kind of series: fluorescence anisotropy.
The target of series [6] is T2, MBP-AtTZF1 TZF. The experiment in a line: fluorescence anisotropy.

In the case of UAUUUAUUAUUUAUUUAUU (ssRNA) [ARE19], the binding result in series [1] and in series [2] was “no binding” each time.

For the molecule UGUUUGUUGUUUGUUUGUU (ssRNA) [MutG], the binding result in series [3] is on record as “no binding”.

Turning to UAUUUAUUAUUUAUUUAUU (ssRNA) [Fl-ARE19], the Kd in series [4] worked out at 4.55 ± 0.13 µM; in series [5], 410 ± 50 nM.

UUUUUUUUUUUUUUUUUUU (ssRNA) [Fl-polyU]: the Kd was 7.37 ± 0.12 µM in series [6], 2.27 ± 0.19 µM in series [4] and 470 ± 30 nM in series [5].
